Data as given in patent EP4755920A1.

Molecular target: hIL4Rα-ECD(26-232)-mFc (human)
Experiment: competition ELISA, hIL4R-ECD-mFc captured by anti-mFc, biotinylated human IL4 as competitor

IC50: 9.95 nM
Substance: Isotype (antibody)
